Results taken from US20250145673A1 (AFFILOGIC, published 2025).
Substitutions are numbered along the chain they refer to.

B1: polypeptide comprising the amino acid sequence of SEQ ID NO: 33 (designed binder)
chain: MVKVKFAATGEEKEVETSKIANVYRVGKDVLFSYDDQGKIGWGYVSEKDAPKELLDLLARAEREK
B2: polypeptide comprising the amino acid sequence of SEQ ID NO: 34 (designed binder)
chain: B1 chain with A7D, A21S, N22A, V26T
B3: polypeptide having the amino acid sequence of SEQ ID NO: 27 (designed binder)
chain: MVKVKFEATGEEKEVDTSKIYQVYRSGKEVLFTYDDNGKTGWGYVSEKDAPKELLDMLARAEREK
notes: Sac7d variant (Nanofitin); also called parental clone of cluster 6; Nanofitin
B4: Fab NF-I (Fab fusion protein comprising SEQ ID NO: 36 and SEQ ID NO: 60) (other)
heavy: EVQLVESGGGLVQPGGSLRLSCAASGYDFTHYGMNWVRQAPGKGLEWVGWINTYTGEPTYAADFKRRFTFSLDTSKSTAYLQMNSLRAEDTAVYYCAKYPYYYGTSHWYFDVWGQGTLVTVSSASTKGPSVFPLAPSSKSTSGGTAALGCLVKDYFPEPVTVSWNSGALTSGVHTFPAVLQSSGLYSLSSVVTVPSSSLGTQTYICNVNHKPSNTKVDKKVEPKSCDKTHL
light: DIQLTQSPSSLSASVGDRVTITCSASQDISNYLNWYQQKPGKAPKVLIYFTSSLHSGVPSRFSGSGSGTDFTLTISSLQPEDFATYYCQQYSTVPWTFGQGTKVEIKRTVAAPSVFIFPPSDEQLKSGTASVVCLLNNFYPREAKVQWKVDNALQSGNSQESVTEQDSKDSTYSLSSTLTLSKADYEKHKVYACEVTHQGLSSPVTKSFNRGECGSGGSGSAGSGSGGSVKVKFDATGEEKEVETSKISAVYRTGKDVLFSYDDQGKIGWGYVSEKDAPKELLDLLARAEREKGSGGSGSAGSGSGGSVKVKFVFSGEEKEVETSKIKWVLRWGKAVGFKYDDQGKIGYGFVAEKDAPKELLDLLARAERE
B5: Fab NF-E (Fab fusion protein comprising SEQ ID NO: 59 and SEQ ID NO: 57) (other)
heavy: EVQLVESGGGLVQPGGSLRLSCAASGYDFTHYGMNWVRQAPGKGLEWVGWINTYTGEPTYAADFKRRFTFSLDTSKSTAYLQMNSLRAEDTAVYYCAKYPYYYGTSHWYFDVWGQGTLVTVSSASTKGPSVFPLAPSSKSTSGGTAALGCLVKDYFPEPVTVSWNSGALTSGVHTFPAVLQSSGLYSLSSVVTVPSSSLGTQTYICNVNHKPSNTKVDKKVEPKSCDKTHLGSGGSGSAGSGSGGSVKVKFVFSGEEKEVETSKIKWVLRWGKAVGFKYDDQGKIGYGFVAEKDAPKELLDLLARAERE
light: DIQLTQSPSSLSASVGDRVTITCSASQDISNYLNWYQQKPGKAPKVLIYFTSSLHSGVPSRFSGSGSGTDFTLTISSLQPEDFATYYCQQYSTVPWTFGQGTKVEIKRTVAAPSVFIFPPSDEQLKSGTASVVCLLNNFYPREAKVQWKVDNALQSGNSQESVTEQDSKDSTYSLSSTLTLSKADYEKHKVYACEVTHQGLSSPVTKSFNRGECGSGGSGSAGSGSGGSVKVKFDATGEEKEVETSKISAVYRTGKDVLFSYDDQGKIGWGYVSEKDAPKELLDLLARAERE
notes: Signal peptide cleaved off prior to secretion
B6: Fab NF-F (Fab fusion protein comprising SEQ ID NO: 63 and SEQ ID NO: 35) (other)
heavy: EVQLVESGGGLVQPGGSLRLSCAASGYDFTHYGMNWVRQAPGKGLEWVGWINTYTGEPTYAADFKRRFTFSLDTSKSTAYLQMNSLRAEDTAVYYCAKYPYYYGTSHWYFDVWGQGTLVTVSSASTKGPSVFPLAPSSKSTSGGTAALGCLVKDYFPEPVTVSWNSGALTSGVHTFPAVLQSSGLYSLSSVVTVPSSSLGTQTYICNVNHKPSNTKVDKKVEPKSCDKTHLGSGGSGSAGSGSGGSVKVKFVFSGEEKEVETSKIKWVLRWGKAVGFKYDDQGKIGYGFVAEKDAPKELLDLLARAEREKGSGGSGSAGSGSGGSVKVKFDATGEEKEVETSKISAVYRTGKDVLFSYDDQGKIGWGYVSEKDAPKELLDLLARAERE
light: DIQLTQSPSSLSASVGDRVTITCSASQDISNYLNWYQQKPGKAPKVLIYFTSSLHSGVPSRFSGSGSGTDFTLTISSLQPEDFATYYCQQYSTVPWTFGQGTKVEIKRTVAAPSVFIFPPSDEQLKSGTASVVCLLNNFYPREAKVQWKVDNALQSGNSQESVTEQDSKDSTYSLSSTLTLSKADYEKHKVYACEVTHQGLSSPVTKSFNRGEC
B7: Fab NF-H (Fab fusion protein comprising SEQ ID NO: 63 and SEQ ID NO: 62) (other)
heavy: B6 heavy
light: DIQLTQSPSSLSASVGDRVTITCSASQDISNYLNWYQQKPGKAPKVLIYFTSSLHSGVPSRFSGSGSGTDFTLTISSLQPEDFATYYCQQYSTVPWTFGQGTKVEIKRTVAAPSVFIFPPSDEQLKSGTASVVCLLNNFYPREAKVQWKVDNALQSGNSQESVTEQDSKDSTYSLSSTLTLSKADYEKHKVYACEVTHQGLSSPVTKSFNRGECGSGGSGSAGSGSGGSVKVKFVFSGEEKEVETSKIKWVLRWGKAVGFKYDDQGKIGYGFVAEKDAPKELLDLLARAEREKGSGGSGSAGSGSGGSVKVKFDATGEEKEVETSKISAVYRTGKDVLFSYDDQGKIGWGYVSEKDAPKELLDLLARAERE
B8: Fab NF-J (Fab fusion protein comprising SEQ ID NO: 58 and SEQ ID NO: 62) (other)
heavy: EVQLVESGGGLVQPGGSLRLSCAASGYDFTHYGMNWVRQAPGKGLEWVGWINTYTGEPTYAADFKRRFTFSLDTSKSTAYLQMNSLRAEDTAVYYCAKYPYYYGTSHWYFDVWGQGTLVTVSSASTKGPSVFPLAPSSKSTSGGTAALGCLVKDYFPEPVTVSWNSGALTSGVHTFPAVLQSSGLYSLSSVVTVPSSSLGTQTYICNVNHKPSNTKVDKKVEPKSCDKTHLGSGGSGSAGSGSGGSVKVKFDATGEEKEVETSKISAVYRTGKDVLFSYDDQGKIGWGYVSEKDAPKELLDLLARAERE
light: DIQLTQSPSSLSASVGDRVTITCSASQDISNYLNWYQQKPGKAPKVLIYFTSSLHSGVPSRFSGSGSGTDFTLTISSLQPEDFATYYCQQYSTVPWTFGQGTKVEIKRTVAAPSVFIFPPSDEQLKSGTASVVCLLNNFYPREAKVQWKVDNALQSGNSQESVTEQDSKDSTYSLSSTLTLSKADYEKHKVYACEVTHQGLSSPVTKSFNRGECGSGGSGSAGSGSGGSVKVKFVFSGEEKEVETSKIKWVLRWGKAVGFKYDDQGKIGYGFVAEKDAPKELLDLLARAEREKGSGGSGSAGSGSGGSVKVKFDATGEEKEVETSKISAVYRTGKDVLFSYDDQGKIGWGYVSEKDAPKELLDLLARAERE
B9: Fab NF-G (Fab fusion protein comprising SEQ ID NO: 61 and SEQ ID NO: 60) (other)
heavy: EVQLVESGGGLVQPGGSLRLSCAASGYDFTHYGMNWVRQAPGKGLEWVGWINTYTGEPTYAADFKRRFTFSLDTSKSTAYLQMNSLRAEDTAVYYCAKYPYYYGTSHWYFDVWGQGTLVTVSSASTKGPSVFPLAPSSKSTSGGTAALGCLVKDYFPEPVTVSWNSGALTSGVHTFPAVLQSSGLYSLSSVVTVPSSSLGTQTYICNVNHKPSNTKVDKKVEPKSCDKTHLGSGGSGSAGSGSGGSVKVKFDATGEEKEVETSKISAVYRTGKDVLFSYDDQGKIGWGYVSEKDAPKELLDLLARAEREKGSGGSGSAGSGSGGSVKVKFVFSGEEKEVETSKIKWVLRWGKAVGFKYDDQGKIGYGFVAEKDAPKELLDLLARAERE
light: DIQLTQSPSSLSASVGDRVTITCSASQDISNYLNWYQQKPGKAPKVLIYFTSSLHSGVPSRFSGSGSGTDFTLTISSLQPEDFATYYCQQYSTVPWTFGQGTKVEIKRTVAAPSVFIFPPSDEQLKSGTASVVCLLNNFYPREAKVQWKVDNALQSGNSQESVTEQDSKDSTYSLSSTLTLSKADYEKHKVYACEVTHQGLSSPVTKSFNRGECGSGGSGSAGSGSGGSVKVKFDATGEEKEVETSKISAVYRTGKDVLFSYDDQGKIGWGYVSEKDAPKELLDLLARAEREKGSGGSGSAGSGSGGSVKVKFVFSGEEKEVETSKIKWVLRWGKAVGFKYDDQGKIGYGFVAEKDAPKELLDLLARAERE

These binders were tested against T1, complement component 3 (C3) (UniProt P01024 23-1663) (assay: ITC).
T1 construct: Purified bought protein; native C3 is a disulfide-linked two-chain protein made from one precursor
T1 sequence (P01024 23-1663 limits assumed): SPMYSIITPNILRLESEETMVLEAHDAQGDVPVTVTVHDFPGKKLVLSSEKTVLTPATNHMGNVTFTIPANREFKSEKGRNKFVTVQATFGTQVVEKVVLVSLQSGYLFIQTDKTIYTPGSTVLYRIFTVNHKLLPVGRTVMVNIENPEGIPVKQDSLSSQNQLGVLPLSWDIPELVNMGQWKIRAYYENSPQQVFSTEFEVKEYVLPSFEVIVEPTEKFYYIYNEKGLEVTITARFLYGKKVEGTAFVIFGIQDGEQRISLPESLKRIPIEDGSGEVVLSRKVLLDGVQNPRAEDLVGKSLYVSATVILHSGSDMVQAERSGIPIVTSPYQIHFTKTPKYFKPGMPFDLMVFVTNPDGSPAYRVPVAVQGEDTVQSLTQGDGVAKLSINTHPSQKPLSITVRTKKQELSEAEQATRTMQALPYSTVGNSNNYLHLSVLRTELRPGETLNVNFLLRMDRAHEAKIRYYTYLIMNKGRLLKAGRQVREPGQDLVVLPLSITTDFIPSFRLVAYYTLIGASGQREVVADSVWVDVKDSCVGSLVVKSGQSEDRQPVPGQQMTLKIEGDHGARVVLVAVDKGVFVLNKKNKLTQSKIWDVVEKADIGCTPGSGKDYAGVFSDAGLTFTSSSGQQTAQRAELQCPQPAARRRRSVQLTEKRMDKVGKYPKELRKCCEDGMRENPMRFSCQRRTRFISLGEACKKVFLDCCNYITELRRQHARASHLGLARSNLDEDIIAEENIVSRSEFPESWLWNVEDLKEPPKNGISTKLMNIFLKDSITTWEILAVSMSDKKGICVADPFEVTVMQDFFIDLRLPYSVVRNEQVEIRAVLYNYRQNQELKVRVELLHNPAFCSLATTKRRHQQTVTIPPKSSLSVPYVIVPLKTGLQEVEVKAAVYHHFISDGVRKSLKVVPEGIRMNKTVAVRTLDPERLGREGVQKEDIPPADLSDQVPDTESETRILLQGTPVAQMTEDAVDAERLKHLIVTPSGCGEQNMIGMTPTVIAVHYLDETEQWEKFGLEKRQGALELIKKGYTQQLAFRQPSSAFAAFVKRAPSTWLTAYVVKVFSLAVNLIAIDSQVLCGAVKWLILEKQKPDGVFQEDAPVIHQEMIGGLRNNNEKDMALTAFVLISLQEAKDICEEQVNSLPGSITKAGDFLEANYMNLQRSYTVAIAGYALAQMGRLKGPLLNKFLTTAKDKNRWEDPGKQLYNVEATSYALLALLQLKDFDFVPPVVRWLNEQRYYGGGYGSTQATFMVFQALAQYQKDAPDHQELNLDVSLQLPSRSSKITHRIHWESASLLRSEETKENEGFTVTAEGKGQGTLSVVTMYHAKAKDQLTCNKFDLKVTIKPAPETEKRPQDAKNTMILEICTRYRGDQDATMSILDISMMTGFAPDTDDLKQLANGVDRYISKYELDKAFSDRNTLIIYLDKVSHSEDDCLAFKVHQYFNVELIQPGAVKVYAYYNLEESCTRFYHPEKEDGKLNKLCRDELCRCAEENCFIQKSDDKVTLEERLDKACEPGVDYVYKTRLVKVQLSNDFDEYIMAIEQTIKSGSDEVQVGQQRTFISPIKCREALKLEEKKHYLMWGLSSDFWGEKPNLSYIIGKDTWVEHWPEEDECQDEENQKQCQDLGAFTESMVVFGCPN

Row | Kd [nM] | Binder
1 | 1.9 | B1
2 | 1.3 | B2

Each binder was assayed against T1, complement component 3 (C3) (assay: ITC; ITC, not SPR).

Row | Kd [nM] | Binder
3 | 2.1 | B3

Each binder was assayed against T1, complement component 3 (C3) (assay: cell-based or functional assay).

Row | IC50 (nM) Alternative (ELISA-based complement activation assay) [nM] | IC50 (nM) Classical (ELISA-based complement activation assay) [nM] | Binder
4 | 700 | 743 | B3
5 | 447 | 63 | B1
6 | 286 | 79 | B2

Molecular target: T1, complement component 3 (C3)
Assay: cell-based or functional assay
Remark: another data set of the same source

Row | IC50 (nM) Alternative Pathway (Wieslab® assay) [nM] | IC50 (nM) Classical Pathway (Wieslab® assay) [nM] | Binder
7 | 170 | 63 | B4
8 | 246 | 65 | B5
9 | 273 | 78 | B6
10 | 123 | 47 | B7
11 | 121 | 48 | B8

These binders were tested against T1, complement component 3 (C3) (assay: ITC, binder titrated into target).

Row | -TΔS [kcal/mol] | Kd [nM] | N | ΔG [kcal/mol] | ΔH [kcal/mol] | Binder
12 | 23.4 | 2.1 | 0.98 | -11.8 | -35.2 | B3
13 | 6.6 | 1.9 | 0.94 | -11.9 | -18.5 | B1
14 | 16.7 | 1.3 | 0.85 | -12.1 | -28.8 | B2

What follows are binders tested against T1, complement component 3 (C3) (assay: ITC, polypeptide titrated into C3; fit box in the lower panel).

Row | Ka [M⁻¹] | Binder
15 | 4.74e+08 | B3

Molecular target: T1, complement component 3 (C3)
Assay: as above
Remark: another data set of the same source

Row | Ka [M⁻¹] | Binder
16 | 5.36e+08 | B1

These binders were tested against human serum albumin (HSA) (human, UniProt P02768 25-609) (assay: SPR, HSA amine-coupled to chip, single cycle kinetics, 1:1 Langmuir fit).
Sequence of human serum albumin (HSA) (P02768 25-609 limits assumed): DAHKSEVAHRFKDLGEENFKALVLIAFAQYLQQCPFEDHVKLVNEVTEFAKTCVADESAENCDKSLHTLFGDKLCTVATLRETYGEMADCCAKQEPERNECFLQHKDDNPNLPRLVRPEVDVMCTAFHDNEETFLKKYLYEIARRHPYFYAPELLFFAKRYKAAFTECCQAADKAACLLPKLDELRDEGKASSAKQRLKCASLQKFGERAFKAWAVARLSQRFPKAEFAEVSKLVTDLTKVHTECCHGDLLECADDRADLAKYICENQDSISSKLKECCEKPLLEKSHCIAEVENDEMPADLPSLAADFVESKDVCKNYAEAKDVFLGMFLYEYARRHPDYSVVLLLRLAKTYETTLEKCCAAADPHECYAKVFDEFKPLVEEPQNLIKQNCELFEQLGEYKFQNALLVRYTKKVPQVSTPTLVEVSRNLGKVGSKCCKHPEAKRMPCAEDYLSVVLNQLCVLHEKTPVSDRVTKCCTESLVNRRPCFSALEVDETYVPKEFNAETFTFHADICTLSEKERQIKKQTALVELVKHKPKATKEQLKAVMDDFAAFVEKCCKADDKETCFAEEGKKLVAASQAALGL
Protocol: C3, VEGF, and HSA were placed onto Spots B, C, and D, respectively, across all 8 channels to test for the binding of the supplied analytes. Spot A was used as a reference spot. The conditioned biosensor chip was chemically activated with EDC/NHS. Ligands were then injected onto the activated surface to allow for immobilization. After immobilization, 1 M ethanolamine was injected to block any remaining reactive carboxyl groups in the carboxymethylated dextran surface.
(§1) In summary, ligands were immobilized under the following conditions: 25° C. on a Sierra Sensors HCA (CM5), Running Buffer of PBST (10 mM Phosphate Buffer pH 7.4, 150 mM NaCl, 0.05% Tween-20; pH 7.4), amine coupling Immobilization Buffer of 10 mM NaOAc pH 5.0, activation with EDC/NHS 7 minutes, immobilization for 2 minutes, and blocking with 1 M ethanolamine for 7 minutes.
(§2) An 8-point, 3-fold serial dilution assay was performed in duplicate for the Fab fusion proteins described in Example 8 starting at 100 nM. Sensorgrams were analyzed using Sierra Sensors Analyzer with a double reference to determine the interaction parameters ka, kd, and KD. The reference channel was first subtracted from the ligand channel as the first reference. The internal blank injections were set to closest blank after injection based on the method. The kd was calculated for the top concentration by fitting the off-rate part of the curve. The kd was then set to global constant for fitting rest of the curves. Rmax was fit locally for each individual curve since the number of available binding sites changed after each injection. Binding data was fit to a 1:1 Langmuir model.

Row | Kd [nM] | Binder
17 | 8.9 | B4
18 | 3 | B5
19 | 90.6 | B6
20 | 0.1 | B7
21 | 16.9 | B9
22 | 16.9 | B8

What follows are binders tested against T1, complement component 3 (C3) (assay: SPR, target amine-coupled to chip, single cycle kinetics, 1:1 Langmuir fit).
Protocol: as §1, with “pH 4.0,” for “pH 5.0,”, “EDC/NHS 6” for “EDC/NHS 7”, “for 1 minute,” for “for 2 minutes,”, “M ethanolamine.” for “M ethanolamine for 7 minutes.”
An 8-point, 3-fold serial dilution assay was performed in duplicate for the polypeptides described in Example 1 starting at either 20 nM, 50 nM, or 200 nM.
as §2, with “Sensorgrams” for “An 8-point, 3-fold serial dilution assay was performed in duplicate for the Fab fusion proteins described in Example 8 starting at 100 nM. Sensorgrams”, “Analyzer software version 3.1.33” for “Analyzer”

Row | Kd [nM] | Binder
23 | 1.94 | B3
24 | 0.22 | B1
25 | 0.66 | B2

What follows are binders tested against T1, complement component 3 (C3) (assay: SPR, single cycle kinetics, 1:1 Langmuir fit; text says C3 (Cat #A113c) was immobilised, the column's head prints 'Binding to C3b').
Protocol: C3 binding, VEGF binding, HSA binding, and equilibrium dissociation constant (KD) measurements were determined by Surface Plasmon Resonance (SPR) using the Sierra SPR-23 instrument. C3 protein was obtained from Complement Technology, Inc. (Cat #A113c). VEGF protein was obtained from Sino Biologicals, Inc. HSA protein was obtained from Sigma-Aldrich, Inc. (Cat #A3782). The Fab fusion proteins described in Example 8 were stored each at 1 mg/mL in PBST, pH 7.4.
as §1, §2

Row | Kd [nM] | Binder
26 | 1.42 | B4
27 | 1.31 | B5
28 | 4.09 | B6
29 | 0.13 | B7
30 | 0.21 | B9
31 | 0.14 | B8
